Data on six molecules can be found in paper PMC9125324, “MdJa2 Participates in the Brassinosteroid Signaling Pathway to Regulate the Synthesis of Anthocyanin and Proanthocyanidin in Red-Fleshed Apple”.

For data set [1], the target named is T1, MdJa2-His (Malus domestica? (red-fleshed apple), UniProt Q208U7 1-224). In words: EMSA; EMSA (LightShift kit): 2.5% glycerol, 5 mM MgCl2, 10 mM EDTA, 50 mM KCl; room temperature, 30 min; pH not stated. Particulars: protein: recombinant, tags: His (pET32a), chain copies: 2, blunt.
T1 sequence (Q208U7 entry or part of it): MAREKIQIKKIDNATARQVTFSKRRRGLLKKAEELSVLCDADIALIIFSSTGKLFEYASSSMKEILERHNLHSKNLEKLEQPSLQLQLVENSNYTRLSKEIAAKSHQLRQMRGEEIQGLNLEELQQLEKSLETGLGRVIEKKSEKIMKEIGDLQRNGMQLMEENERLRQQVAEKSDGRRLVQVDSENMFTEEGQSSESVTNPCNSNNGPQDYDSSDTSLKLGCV
The target of data set [2] is T1, MdJa2-His. In words: competition; 50-200x excess vs labeled N5; EMSA (LightShift kit): 2.5% glycerol, 5 mM MgCl2, 10 mM EDTA, 50 mM KCl; room temperature, 30 min; pH not stated. Conditions: protein: recombinant; tags: His (pET32a); chain copies: 2; blunt. On the technique in general: Mobility shift assays separate free from complexed probe on a gel.
Data set [3] concerns the target T1, MdJa2-His. In words: competition; 50-200x excess vs labeled N3; EMSA (LightShift kit): 2.5% glycerol, 5 mM MgCl2, 10 mM EDTA, 50 mM KCl; room temperature, 30 min; pH not stated. Conditions: protein: recombinant; tags: His (pET32a); chain copies: 2; blunt.

B1: ANS promoter probe (dsDNA)
DNA 1: GCAATTAAGTTTGTAAACCAATAATTAACTTAATTTTGAT
DNA 2: ATCAAAATTAAGTTAATTATTGGTTTACAAACTTAATTGC
For B1, the binding result in the data set with MdJa2-His [1] (label: biotin (labeled probe)) is recorded as “binds”.

B2: ANS-mutant probe (dsDNA)
DNA 1: GCAACCAAGTTTGTAAACCAATAATTAACTTAATTTTGAT
DNA 2: ATCAAAATTAAGTTAATTATTGGTTTACAAACTTGGTTGC
On to B2, for which the binding result with MdJa2-His [1] is given as “no binding”.

B3: MYB12-mutant probe (printed NYB12-mutant) (dsDNA)
DNA 1: AAATTCAGGAACCATTGCTACAACCAAGCATAACACAGT
DNA 2: ACTGTGTTATGCTTGGTTGTAGCAATGGTTCCTGAATTT
Regarding B3, the binding result with MdJa2-His [2] is “no binding”.

B4: MYB12 promoter probe (dsDNA)
DNA 1: AAATTCAGGAACCATTGCTACAATTAAGCATAACACAGT
DNA 2: ACTGTGTTATGCTTAATTGTAGCAATGGTTCCTGAATTT
For B4, in the data set with MdJa2-His [1] (label: biotin (labeled probe)), the binding result is “binds”.

B5: MYB9 promoter probe (dsDNA)
DNA 1: TAAATAGTAATAATATCATTTTTGTACATTCAGATAA
DNA 2: TTATCTGAATGTACAAAAATGATATTATTACTATTTA
On to B5, for which the binding result with MdJa2-His [1] (label: biotin (labeled probe)) is given as “binds”.

B6: MYB9-mutant probe (dsDNA)
DNA 1: TAAATAGTAATAATATCACCTTTGTACATTCAGATAA
DNA 2: TTATCTGAATGTACAAAGGTGATATTATTACTATTTA
Consider B6, for which, in the data set with MdJa2-His [3], the binding result was “no binding”.
